In assay [1] the target is human IgG from serum (human) [IgG part: P01857]. Description: SPR.
Assay [2] shares this target. Description: SPR; preparation #1. Background: In SPR one partner is held on a chip, and binding of the other changes the refractive index at the surface.
For assay [3] the target is unchanged. Description: SPR; preparation #2.

The term Kd denotes a measure of binding affinity in units of concentration. Read a low Kd as higher affinity. As to protein G:HRP (from UniProt P19909), the equilibrium dissociation constant (Kd) in assay [1] came out at 0.0189 µM.

For “protein G: β-galactosidase fusion protein (from UniProt P19909)”, the Kd in assay [2] is 0.0334 µM; in assay [3], 0.0418 µM.
